Values belong to the binder of their own block, whether it stands above or below them.
Experiments:
[1] = molecular target: T1, recombinant mouse IL-15Ralpha-Fc (mouse), Q60819; assay: SPR (BIACORE 3000), rIL-15Rα-Fc amine-coupled to CM5 chip, analyte injected, 1:1 interaction model; rIL-15 as analyte; settings: remark: other sources report otherwise
T1 chain: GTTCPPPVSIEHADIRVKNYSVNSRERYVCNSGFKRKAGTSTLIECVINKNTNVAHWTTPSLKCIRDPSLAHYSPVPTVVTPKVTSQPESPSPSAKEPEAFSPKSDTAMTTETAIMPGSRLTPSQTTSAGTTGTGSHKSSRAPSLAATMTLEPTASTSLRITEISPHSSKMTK

[2] = molecular target: T2, recombinant mouse IL-15Ralpha-Fc (mouse, UniProt Q60819 33-205); assay: SPR (BIACORE 3000), rIL-15Rα-Fc amine-coupled to CM5 chip, analyte injected, 1:1 interaction model; purified GIFT15 as analyte
T2 construct: Bought from R&D Systems and amine-coupled to a CM5 chip (1300 RU); also called rmIL-15Rα-Fc; rIL-15Rα-Fc; not shown: Fc part of the commercial fusion
T2 sequence (looked up): T1 chain
Description: mGIFT15 was purified by immunoaffinity column packed using CNBr-sepharose (Amersham, N.J., USA) according to manufacturer's instructions. The binding interaction between mGIFT15 and rmIL-15Rα-Fc was examined in real-time using a BIACORE 3000 with research-grade CM5 sensor chips (Biacore AB, Uppsala, Sweden). Based on the manufacturer's recommendations, active CM5 surfaces were prepared by immobilizing rIL-15Rα-Fc (10 μg/mL in 10 mM sodium acetate pH 5.0) using the Amine Coupling Kit (Biacore AB) and HBS-M running buffer. Corresponding reference surfaces were prepared in the similar manner in the absence of any ligand. As a positive control, rIL-15 was injected at 50 μL/min (180 sec association+180 sec dissociation) over the reference and amine-coupled rIL-15Rα-Fc surfaces (1300 RU). Regeneration was achieved using two 30 second pulses of HBS-M containing 0.5 M NaCl, 50 mM EDTA, and 0.05% (v/v) TritonX-100 or Empigen. For the test sample, purified mGIFT15 was injected over the same sensor chip surfaces and regenerated in an identical manner. All binding data presented were “double-referenced” and analyzed according to a 1:1 interaction model using BIAevaluation 4.1 (Biacore AB).

Kd [1]: 3 nM
B1: recombinant mouse IL-15, P48346 49-162 (ligand, UniProt P48346 49-162, looked up)
chain: NWIDVRYDLEKIESLIQSIHIDTTLYTDSDFHPSCKVTAMNCFLLELQVILHEYSNMTLNETVRNVLYLANSTLSSNKNVAESGCKECEELEEKTFTEFLQSFIRIVQMFINTS

Kd [2]: 1.4 nM
B2: mouse GM-CSF and IL-15 fusion protein (fusokine) mGIFT15 (ligand)
chain: APTRSPITVTRPWKHVEAIKEALNLLDDMPVTLNEEVEVVSNEFSFKKLTCVQTRLKIFEQGLRGNFTKLKGALNMTASYYQTYCPPTPETDCETQVTTYADFIDSLKTFLTDDPGRRAIMKILKPYMRNTSISCYLCFLLNSHFLTEAGIHVFILGCVSVGLPKTEANWIDVRYDLEKIESLIQSIHIDTTLYTDSDFHPSCKVTAMNCFLLELQVILHEYSNMTLNETVRNVLYLANSTLSSNKNVAESGCKECEELEEKTFTEFLQSFIRIVQMFINTS
notes: also called purified GIFT15; purified mGIFT15
